T1: Recombinant human IL-1RAP Fc fusion protein (Acrobiosystems, catalog no. ILP-H5256) (human, UniProt Q9NPH3 21-359, limits assumed)
T1 construct: Bought; not shown: Fc part of the bought fusion protein
T1 sequence: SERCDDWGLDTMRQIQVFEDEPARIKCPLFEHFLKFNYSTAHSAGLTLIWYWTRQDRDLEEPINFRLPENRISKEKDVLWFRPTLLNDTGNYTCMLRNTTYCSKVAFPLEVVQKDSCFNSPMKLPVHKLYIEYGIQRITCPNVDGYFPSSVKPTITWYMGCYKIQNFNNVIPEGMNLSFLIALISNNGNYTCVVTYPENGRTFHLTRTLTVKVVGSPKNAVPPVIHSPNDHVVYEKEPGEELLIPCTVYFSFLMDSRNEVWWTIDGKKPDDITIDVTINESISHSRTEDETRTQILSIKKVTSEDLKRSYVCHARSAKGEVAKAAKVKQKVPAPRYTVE

B1: Anti-IL-1RAP-C8-H1A-G1-Fab (Fab, V domains shown)
VH: QVQLVQSGAEVKKPGSSVKVSCKASGGASRAYAIHWVRQAPGQGLEWMGYIIPLHGQVDYAQKFQGRVTITADESTSTAYMELSSLRSEDTAVYYCARGQTLYDSGRQFDIWGQGTLVTVSS
VL: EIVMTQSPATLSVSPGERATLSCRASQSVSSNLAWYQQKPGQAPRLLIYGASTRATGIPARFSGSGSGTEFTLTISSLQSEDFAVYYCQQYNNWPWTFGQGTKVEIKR
B2: Anti-IL-1RAP-C8-H2B-B5-Fab (Fab, V domains shown)
VH: B1 VH with A28Q, S29F, R30S, A31E, H35Q, L54T, H55V, Q57G, V58F
VL: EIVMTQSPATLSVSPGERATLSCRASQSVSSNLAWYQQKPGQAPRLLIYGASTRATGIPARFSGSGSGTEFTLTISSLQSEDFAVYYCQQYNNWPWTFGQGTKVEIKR
B3: Anti-IL-1RAP-C8-H1B-A8-Fab (Fab, V domains shown)
VH: B1 VH with G27E, A28G, R30Y, A31P, H35Q
VL: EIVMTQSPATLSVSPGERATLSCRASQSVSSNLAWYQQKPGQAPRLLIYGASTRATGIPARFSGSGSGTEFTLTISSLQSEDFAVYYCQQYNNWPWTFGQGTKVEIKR
B4: Anti-IL-1RAP-C8-recB-Fab (Fab, V domains shown)
VH: B1 VH with A28P, S29R, H35Q, L54S, H55L, Q57G, V58Y
VL: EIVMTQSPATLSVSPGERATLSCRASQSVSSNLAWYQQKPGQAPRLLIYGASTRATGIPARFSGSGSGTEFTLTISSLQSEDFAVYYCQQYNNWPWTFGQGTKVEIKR
B5: Anti-IL-1RAP-C8-H1B-H10-Fab (Fab, V domains shown)
VH: B1 VH with G27S, A28T, S29W, R30E, A31P, H35Q
VL: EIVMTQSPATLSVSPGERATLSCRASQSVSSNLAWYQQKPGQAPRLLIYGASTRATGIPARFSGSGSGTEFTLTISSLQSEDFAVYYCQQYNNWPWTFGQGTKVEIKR
B6: Anti-IL-1RAP-C8-H1B-B8-Fab (Fab, V domains shown)
VH: B1 VH with G27S, A28P, S29A, R30E, A31P, H35Q
VL: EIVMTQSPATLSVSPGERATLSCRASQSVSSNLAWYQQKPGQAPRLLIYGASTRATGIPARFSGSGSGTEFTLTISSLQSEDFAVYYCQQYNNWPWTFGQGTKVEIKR
notes: also called ISB 880-C8-H1B-B8
B7: Anti-IL-1RAP-C8-H1A-G11-Fab (Fab, V domains shown)
VH: B1 VH with A28R, S29F, R30H, A31Q, H35Q
VL: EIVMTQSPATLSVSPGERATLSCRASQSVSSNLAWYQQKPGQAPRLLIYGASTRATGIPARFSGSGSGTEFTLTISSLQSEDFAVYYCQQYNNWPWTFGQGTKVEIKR
B8: Anti-IL-1RAP-C8-H1B-E7-Fab (Fab, V domains shown)
VH: B1 VH with G27S, A28K, S29H, R30G, A31N, H35Q
VL: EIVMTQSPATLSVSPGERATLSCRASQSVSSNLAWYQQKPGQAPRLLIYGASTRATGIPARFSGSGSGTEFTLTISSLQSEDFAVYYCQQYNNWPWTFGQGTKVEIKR
B9: Anti-IL-1RAP-C8-recA-Fab (Fab, V domains shown)
VH: B1 VH with G27S, A28T, S29W, R30E, A31P, H35Q, L54S, H55L, Q57G, V58Y
VL: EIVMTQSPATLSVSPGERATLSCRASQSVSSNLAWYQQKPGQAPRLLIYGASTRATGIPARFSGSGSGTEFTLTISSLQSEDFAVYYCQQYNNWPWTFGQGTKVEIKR
B10: Anti-IL-1RAP-C8-H1B-F3-Fab (Fab, V domains shown)
VH: B1 VH with A28P, S29H, R30T, Y32H, H35Q
VL: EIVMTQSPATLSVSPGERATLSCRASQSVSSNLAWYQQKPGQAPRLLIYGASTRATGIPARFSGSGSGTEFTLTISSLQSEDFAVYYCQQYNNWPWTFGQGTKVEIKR
B11: Anti-IL-1RAP-C8-H1B-G10-Fab (Fab, V domains shown)
VH: B1 VH with A28P, S29R, H35Q
VL: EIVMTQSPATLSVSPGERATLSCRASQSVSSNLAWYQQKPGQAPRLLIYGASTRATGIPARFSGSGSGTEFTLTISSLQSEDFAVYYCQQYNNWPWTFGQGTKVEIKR
B12: Anti-IL-1RAP-C8-H2B-C10-Fab (Fab, V domains shown)
VH: B1 VH with A28Q, S29F, R30S, A31E, H35Q, L54S, H55L, Q57G, V58Y
VL: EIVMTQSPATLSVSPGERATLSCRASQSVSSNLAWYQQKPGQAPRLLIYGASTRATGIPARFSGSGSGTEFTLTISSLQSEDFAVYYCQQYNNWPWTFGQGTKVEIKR
notes: also called ISB 880-C8-H2B-C10
B13: Anti-IL-1RAP-C8-H1B-D8-Fab (Fab, V domains shown)
VH: B1 VH with G27P, A28S, S29N, R30P, A31V, H35Q
VL: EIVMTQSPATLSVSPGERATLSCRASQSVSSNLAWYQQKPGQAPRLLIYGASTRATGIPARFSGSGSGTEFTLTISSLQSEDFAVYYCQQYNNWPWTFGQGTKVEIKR
B14: Anti-IL-1RAP-C8-H1A-G3-Fab (Fab, V domains shown)
VH: B1 VH with A28P, S29F, R30S, A31D, H35Q
VL: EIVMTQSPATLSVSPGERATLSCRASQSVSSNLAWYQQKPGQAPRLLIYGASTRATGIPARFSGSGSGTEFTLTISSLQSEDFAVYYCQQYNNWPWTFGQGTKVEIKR
B15: Anti-IL-1RAP-C8-recC-Fab (Fab, V domains shown)
VH: B1 VH with G27S, A28P, S29A, R30E, A31P, H35Q, L54S, H55L, Q57G, V58Y
VL: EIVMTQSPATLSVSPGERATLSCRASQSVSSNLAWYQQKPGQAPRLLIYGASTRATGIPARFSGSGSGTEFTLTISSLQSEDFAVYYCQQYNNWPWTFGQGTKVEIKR
notes: also called Fab clone anti-IL-1RAP-C8-RecC
B16: Anti-IL-1RAP-C8-H1B-B10-Fab (Fab, V domains shown)
VH: B1 VH with G27V, A28T, S29H, R30T, A31S, H35Q
VL: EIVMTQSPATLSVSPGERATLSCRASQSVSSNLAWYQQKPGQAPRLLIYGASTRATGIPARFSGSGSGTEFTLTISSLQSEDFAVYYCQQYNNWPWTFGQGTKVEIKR

Where a chain is given by its changes, count along the chain named. Names and notes keep the numbering of the source.

The test has as its target T1, Recombinant human IL-1RAP Fc fusion …. Description: SPR, human IL-1RAP-Fc captured, Fab as analyte (0.08 to 50 nM). How it is done: BR100669) at a flow rate of 30 μl/min for 3 min on fc1 and fc2 (fc1 being used as reference). Dissociation was monitored for 5 min. After each cycle, the surface was regenerated with 60 μl of regeneration solution provided with anti-human IgG Fc capture kit (BIACORE™, GE […]®, catalog no. BR100839) or BiotinCAPture kit (BIACORE™, GE […]®, catalog no. 28920234) respectively. Experimental data were processed using the 1:1 Langmuir kinetic fitting model. Measurements included zero-concentration samples for referencing. Chi², U- and residual values were used to evaluate the quality of a fit between the experimental data and individual binding models. […]
As usually defined, the Kd is the concentration at which binding is half-saturated. Turning to B1, the Kd is 424 pM. Under B2 stands 1370 pM. B3: the Kd was 522 pM.

As to B4, the Kd is 52 pM. Take B5: the Kd was 209 pM. Under B6 stands 373 pM; under B7, 742 pM; under B8, 831 pM. Under B9 stands 51 pM; under B10, 427 pM. Under B11 stands 313 pM. For B12, the Kd was 589 pM. As to B13, the Kd turned out to be 476 pM. Under B14 stands 623 pM; under B15, 38 pM; under B16, 553 pM.

(Values after US20240327530A1 (ICHNOS SCIENCES, published 2024).)
